Among the data in paper PMC3082930 are stoichiometry N and CFP donor photobleaching decay time constant (tau) values, retold here.

The target of one experiment is GFP-Kv2.1-K470Q (rat). Nature of the experiment: TIRF single-particle photobleaching step counting.
The target of experiment [1] is Gln-Lys-Gln-Gln tetrameric Kv2.1 construct (rat). Nature of the experiment: TIRF single-particle photobleaching step counting.
Experiment [2] concerns the target Gln-Lys-Lys-Gln tetrameric Kv2.1 construct (rat). Nature of the experiment: TIRF single-particle photobleaching step counting.
Experiment [3] addresses Lys-Gln-Gln-Gln tetrameric Kv2.1 construct (rat). Nature of the experiment: TIRF single-particle photobleaching step counting.
In a further experiment the target is CFP-Kv2.1-K470Q (rat). Nature of the experiment: FRET or BRET. In general terms: In BRET a luciferase serves as donor, and the signal depends on an acceptor being close.
The target of the next experiment is CFP-Kv2.1 (rat) (UniProt P15387). Nature of the experiment: FRET or BRET.

What is called stoichiometry N is the number of molecules, sites or subunits per partner or assembly. In the experiment with GFP-Kv2.1-K470Q (rat), GFP-Kv2.1-K470Q (natural protein) yielded a stoichiometry N of 4.
With “GFP-SUMO1_(101) (from UniProt P63165 1-101) (natural protein)”, the stoichiometry N in experiment [1], in experiment [2] and in experiment [3] was 1 in each case.
YFP-Kv2.1-K470Q (natural protein) gave a CFP donor photobleaching decay time constant (tau) in the experiment with CFP-Kv2.1-K470Q (rat) of 26.2 s.
Turning to “YFP-Ubc9 (from UniProt P63279 1-158) (enzyme)”, the CFP donor photobleaching decay time constant (tau) with CFP-Kv2.1 (rat) came to 23.2 s.
